We go through two molecules from ChEMBL document CHEMBL4346716, “Synthesis of novel andrographolide beckmann rearrangement derivatives and evaluation of their HK2-related anti-inflammatory activities” (Eur J Med Chem, 2019).

Data set [1] has as its system RAW264.7. Nature of the data set: Antiinflammatory activity in mouse RAW264.7 cells assessed as inhibition of LPS-induced NO production preincubated for 3 hrs followed by LPS addition measured after 24 hrs by Griess assay. The format is functional, cell-based.
For data set [2], the target named is T1, Hexokinase-2 (Homo sapiens, UniProt P52789).
T1 sequence (P52789 whole entry): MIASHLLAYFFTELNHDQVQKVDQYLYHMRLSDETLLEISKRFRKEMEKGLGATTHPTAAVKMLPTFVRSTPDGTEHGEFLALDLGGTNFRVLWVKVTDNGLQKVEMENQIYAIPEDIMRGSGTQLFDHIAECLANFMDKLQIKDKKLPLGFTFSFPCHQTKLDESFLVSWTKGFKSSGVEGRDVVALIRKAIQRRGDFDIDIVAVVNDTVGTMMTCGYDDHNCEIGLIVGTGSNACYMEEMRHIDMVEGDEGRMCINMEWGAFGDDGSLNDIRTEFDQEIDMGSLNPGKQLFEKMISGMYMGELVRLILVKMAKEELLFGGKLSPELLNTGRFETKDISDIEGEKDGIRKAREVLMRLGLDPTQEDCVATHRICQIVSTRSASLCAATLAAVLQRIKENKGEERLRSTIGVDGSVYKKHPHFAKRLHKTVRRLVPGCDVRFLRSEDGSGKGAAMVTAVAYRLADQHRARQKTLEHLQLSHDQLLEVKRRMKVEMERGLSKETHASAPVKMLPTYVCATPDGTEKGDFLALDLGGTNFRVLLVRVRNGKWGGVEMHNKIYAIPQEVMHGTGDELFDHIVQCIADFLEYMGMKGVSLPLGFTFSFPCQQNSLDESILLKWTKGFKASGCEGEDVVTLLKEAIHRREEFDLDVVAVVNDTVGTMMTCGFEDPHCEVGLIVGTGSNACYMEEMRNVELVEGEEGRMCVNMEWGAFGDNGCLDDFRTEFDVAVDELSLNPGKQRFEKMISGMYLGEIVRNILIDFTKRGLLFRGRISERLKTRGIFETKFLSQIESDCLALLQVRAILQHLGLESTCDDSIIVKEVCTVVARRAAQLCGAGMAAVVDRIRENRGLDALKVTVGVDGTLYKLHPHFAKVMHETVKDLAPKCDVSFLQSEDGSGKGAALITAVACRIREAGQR
Nature of the data set: Inhibition of recombinant human HK2 expressed in Escherichia coli BL21(DE3) using glucose as substrate preincubated for 10 mins followed by substrate addition in presence of ATP by G6PDH/NADP coupled assay.

Compound in data set [3]: C=C1CC[C@H]2[C@@](C)(CCC(=O)N[C@@]2(C)COC(=O)CCCC[C@@H]2CCSS2)[C@@H]1/C=C/C1=CCOC1=O
The data set is described as follows: Non competitive inhibition of recombinant human HK2 expressed in Escherichia coli BL21(DE3) assessed as Vmax using 3.125 uM ATP as substrate by Lineweaver-Burk double reciprocal plot analysis (reference value: 0.019 OD/min).

Compound in data set [4]: C=C1CC[C@H]2[C@@](C)(CCC(=O)N[C@@]2(C)COC(=O)CCCC[C@@H]2CCSS2)[C@@H]1/C=C/C1=CCOC1=O
The data set is described as follows: Non competitive inhibition of recombinant human HK2 expressed in Escherichia coli BL21(DE3) assessed as Vmax using 6.25 uM ATP as substrate by Lineweaver-Burk double reciprocal plot analysis (reference value: 0.019 OD/min).

Compound in data set [5]: C=C1CC[C@H]2[C@@](C)(CCC(=O)N[C@@]2(C)COC(=O)CCCC[C@@H]2CCSS2)[C@@H]1/C=C/C1=CCOC1=O
Nature of the data set: Non competitive inhibition of recombinant human HK2 expressed in Escherichia coli BL21(DE3) assessed as Vmax using 12.5 uM ATP as substrate by Lineweaver-Burk double reciprocal plot analysis (reference value: 0.019 OD/min).

Compound in data set [6]: C=C1CC[C@H]2[C@@](C)(CCC(=O)N[C@@]2(C)COC(=O)CCCC[C@@H]2CCSS2)[C@@H]1/C=C/C1=CCOC1=O
Nature of the data set: Non competitive inhibition of recombinant human HK2 expressed in Escherichia coli BL21(DE3) assessed as Km using 3.125 uM ATP as substrate by Lineweaver-Burk double reciprocal plot analysis (reference value: 1.62 mM).

Compound in data set [7]: C=C1CC[C@H]2[C@@](C)(CCC(=O)N[C@@]2(C)COC(=O)CCCC[C@@H]2CCSS2)[C@@H]1/C=C/C1=CCOC1=O
Nature of the data set: Non competitive inhibition of recombinant human HK2 expressed in Escherichia coli BL21(DE3) assessed as Km using 6.25 uM ATP as substrate by Lineweaver-Burk double reciprocal plot analysis (reference value: 1.62 mM).

Compound in data set [8]: C=C1CC[C@H]2[C@@](C)(CCC(=O)N[C@@]2(C)COC(=O)CCCC[C@@H]2CCSS2)[C@@H]1/C=C/C1=CCOC1=O
Nature of the data set: Non competitive inhibition of recombinant human HK2 expressed in Escherichia coli BL21(DE3) assessed as Km using 12.5 uM ATP as substrate by Lineweaver-Burk double reciprocal plot analysis (reference value: 1.62 mM).

Compound in data set [9]: C=C1CC[C@H]2[C@@](C)(CCC(=O)N[C@@]2(C)COC(=O)CCCC[C@@H]2CCSS2)[C@@H]1/C=C/C1=CCOC1=O
Nature of the data set: Non competitive inhibition of recombinant human HK2 expressed in Escherichia coli BL21(DE3) assessed as Vmax using 3.125 uM glucose as substrate by Lineweaver-Burk double reciprocal plot analysis (reference value: 0.012 OD/min).

Compound in data set [10]: C=C1CC[C@H]2[C@@](C)(CCC(=O)N[C@@]2(C)COC(=O)CCCC[C@@H]2CCSS2)[C@@H]1/C=C/C1=CCOC1=O
The data set is described as follows: Non competitive inhibition of recombinant human HK2 expressed in Escherichia coli BL21(DE3) assessed as Vmax using 6.25 uM glucose as substrate by Lineweaver-Burk double reciprocal plot analysis (reference value: 0.012 OD/min).

Compound in data set [11]: C=C1CC[C@H]2[C@@](C)(CCC(=O)N[C@@]2(C)COC(=O)CCCC[C@@H]2CCSS2)[C@@H]1/C=C/C1=CCOC1=O
Nature of the data set: Non competitive inhibition of recombinant human HK2 expressed in Escherichia coli BL21(DE3) assessed as Vmax using 12.5 uM glucose as substrate by Lineweaver-Burk double reciprocal plot analysis (reference value: 0.012 OD/min).

Compound in data set [12]: C=C1CC[C@H]2[C@@](C)(CCC(=O)N[C@@]2(C)COC(=O)CCCC[C@@H]2CCSS2)[C@@H]1/C=C/C1=CCOC1=O
Nature of the data set: Non competitive inhibition of recombinant human HK2 expressed in Escherichia coli BL21(DE3) assessed as Km using 3.125 uM glucose as substrate by Lineweaver-Burk double reciprocal plot analysis (reference value: 0.64 mM).

Compound in data set [13]: C=C1CC[C@H]2[C@@](C)(CCC(=O)N[C@@]2(C)COC(=O)CCCC[C@@H]2CCSS2)[C@@H]1/C=C/C1=CCOC1=O
The data set is described as follows: Non competitive inhibition of recombinant human HK2 expressed in Escherichia coli BL21(DE3) assessed as Km using 6.25 uM glucose as substrate by Lineweaver-Burk double reciprocal plot analysis (reference value: 0.64 mM).

Compound in data set [14]: C=C1CC[C@H]2[C@@](C)(CCC(=O)N[C@@]2(C)COC(=O)CCCC[C@@H]2CCSS2)[C@@H]1/C=C/C1=CCOC1=O
Nature of the data set: Non competitive inhibition of recombinant human HK2 expressed in Escherichia coli BL21(DE3) assessed as Km using 12.5 uM glucose as substrate by Lineweaver-Burk double reciprocal plot analysis (reference value: 0.64 mM).

The term IC50 denotes the midpoint of a concentration-inhibition curve. For orientation: Km means the substrate concentration at which the rate is half of its maximum.

A value given as a limit tells only on which side of the number the result lay.

For `C=C1CC[C@H]2[C@@](C)(CC[C@@H](OC(=O)c3ccccc3)[C@@]2(C)NC=O)[C@@H]1/C=C/C1=CCOC1=O`, the 50% inhibitory concentration (IC50) in [1] is 50 µM; in [2], more than 50 µM.

B1: Hexokinase-2 (Homo sapiens), P52789 (protein)
chain: MIASHLLAYFFTELNHDQVQKVDQYLYHMRLSDETLLEISKRFRKEMEKGLGATTHPTAAVKMLPTFVRSTPDGTEHGEFLALDLGGTNFRVLWVKVTDNGLQKVEMENQIYAIPEDIMRGSGTQLFDHIAECLANFMDKLQIKDKKLPLGFTFSFPCHQTKLDESFLVSWTKGFKSSGVEGRDVVALIRKAIQRRGDFDIDIVAVVNDTVGTMMTCGYDDHNCEIGLIVGTGSNACYMEEMRHIDMVEGDEGRMCINMEWGAFGDDGSLNDIRTEFDQEIDMGSLNPGKQLFEKMISGMYMGELVRLILVKMAKEELLFGGKLSPELLNTGRFETKDISDIEGEKDGIRKAREVLMRLGLDPTQEDCVATHRICQIVSTRSASLCAATLAAVLQRIKENKGEERLRSTIGVDGSVYKKHPHFAKRLHKTVRRLVPGCDVRFLRSEDGSGKGAAMVTAVAYRLADQHRARQKTLEHLQLSHDQLLEVKRRMKVEMERGLSKETHASAPVKMLPTYVCATPDGTEKGDFLALDLGGTNFRVLLVRVRNGKWGGVEMHNKIYAIPQEVMHGTGDELFDHIVQCIADFLEYMGMKGVSLPLGFTFSFPCQQNSLDESILLKWTKGFKASGCEGEDVVTLLKEAIHRREEFDLDVVAVVNDTVGTMMTCGFEDPHCEVGLIVGTGSNACYMEEMRNVELVEGEEGRMCVNMEWGAFGDNGCLDDFRTEFDVAVDELSLNPGKQRFEKMISGMYLGEIVRNILIDFTKRGLLFRGRISERLKTRGIFETKFLSQIESDCLALLQVRAILQHLGLESTCDDSIIVKEVCTVVARRAAQLCGAGMAAVVDRIRENRGLDALKVTVGVDGTLYKLHPHFAKVMHETVKDLAPKCDVSFLQSEDGSGKGAALITAVACRIREAGQR
Regarding B1, the Vmax (optical density/minute) in [3] was 0.012; in [4] it was 0.007; in data set [5] it was 0.005; in data set [9] it was 0.007; in data set [10], 0.005; in data set [11], 0.004. The Km in data set [6] came out at 1280 µM; in data set [7], 1280 µM; in data set [8] it was 1210 µM; in data set [12], 685 µM; in [13], 695 µM; in data set [14], 657 µM.
